One block for each molecule: values may come before it.
What was measured:
dimethylcasein [1] = molecular target: dimethylcasein
dimethylcasein [2] = molecular target: dimethylcasein; remark: listed apart in the source
dimethylcasein [3] = molecular target: dimethylcasein; remark: listed apart in the source

Relative Activity (14C-putrescine bonded to dimethylcasein, 37° C., 30 minutes) (relative activity) (dimethylcasein [1]): 10200
Molecule: Bacillus subtilis AJ12866-derived transglutaminase (enzyme)

TG activity (dpm) (14C-putrescine caught by dimethylcasein) (dimethylcasein [2]): 496 dpm
Molecule: fused protein of an 11-residue lacZ-derived peptide and the Bacillus-derived TG, expressed from pBSTG75-11 in Escherichia coli JM109 (enzyme)

relative TG activity (14C-putrescine bonded to dimethylcasein, 37° C., pH 7.5) (dpm/mg/30 min) (dimethylcasein [3]): 25000
B1: Bacillus subtilis AJ1307-derived transglutaminase (enzyme)
chain: MIIVSGQLLRPQDIENWQIDQNLNPLLKEMIETPVQFDYHSIAELMFELKLRMNIVAAAKTLHKSGAKFATFLKTYGNTTYWRVSPEGALELKYRMPPSKAIRDIAENGPFYAFECATAIVIIYYLALIDTIGEDKFNASFDRIILYDWHYEKLPIYTETGHHFFLGDCLYFKNPEFDPQKAQWRGENVILLGEDKYFAHGLGILNGKQIIDKLNSFRKKGALQSAYLLSQATRLDVPSLFR

From patent publication US5731183
